Consider 53 proteins from the supplement of paper PMC10567573.

This data set in a line: protein stability index of a GFP-peptide fusion (GPS, HEK-293T) (PSI 1-6); higher = more stable. As to conditions: c terminus: a fixed tail appended.
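Note: lentivirally expressed fusions sorted by FACS into six bins by GFP to DsRed ratio, PSI derived from sequencing read proportions per bin multiplied by bin number.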

For SKYENYFSASERLSLKRELSWYRG, the protein stability index (parent: IOH40237_15) came out at 1.92.

Consider LTVYAWERGSMKTHFNTAQGFRTV, for which, for the setting “parent: IOH41283_40”, the protein stability index is 2.27. In the case of FSFKVSRWMGLACFRSLAASSPSI [CCDC70 WT], the protein stability index (parent: IOH40382_3) worked out at 2.79. Consider YANGGLNYSYRGYGALSSNLQPPA [C20orf112 WT], for which, for the setting “parent: IOH40687_56”, the protein stability index amounted to 2.06. Consider NLDTEELCEYFSQHLGEYENVLAA, for which the protein stability index (parent: IOH40093_14) amounted to 2.41. As for RVAKKLQSGLVWTNCWLIRELNLP, under “parent: IOH41048_73”, the protein stability index came to 2.99.

In the case of LRLENNHCHIEESEHVLKKAHKYS, the protein stability index (parent: IOH40537_79) came to 2.32. Consider DKELLCCSCQADPRHQGHRVQPVK, for which, under “parent: IOH40792_20”, the protein stability index stood at 3.56. ASSVESTLPVLEASSWKKQVSHDF: under “parent: IOH41760_90”, the protein stability index was determined as 3. Take QSSHYLQWILDKQDLLKERQKDLK [CCNC WT]: the protein stability index (parent: IOH40631_2) was determined as 3.21. For YNENVYTEDGKLDIWSKSNYQVFQ [MED27 WT], the protein stability index (parent: IOH39902_37) came out at 2.11. In the case of PTCPVCKDRASPADLRTNHTLNNL, the protein stability index (parent: IOH40792_10) was 2.83. For the protein RFLRMLLRLADEFGVAVVITNQVV, the protein stability index (parent: IOH41191_42) came to 2.39. Take TRIMIGLTLVFFVQITGQPNILFY: where the note is “parent: IOH40813_47”, the protein stability index was 3.31. Regarding EDLTAKRKRMKMDKTCSKTKNKSK [FAM9B WT], the protein stability index (parent: IOH41618_11) was 4.96. As for INRADYCPECYPDNPANRSLVLPW [IFRG15 WT], where the note is “parent: IOH41552_8”, the protein stability index was found to be 2.18. HVPNPPSGISFPSVVDHPMPEERA: the protein stability index (parent: IOH40237_11) was determined as 2.54.

VVAYLALAALSATISFRIYKSVLQ [RTN1 WT]: the protein stability index (parent: IOH40898_10) worked out at 3.02.

In the case of WSSRSPQERSRVLNQVADLLEQSL, for the setting “parent: IOH41048_11”, the protein stability index was 2.54. In the case of YKSFSKEQQTMDNLEKQLICPICL, for the setting “parent: IOH40604_2”, the protein stability index came to 2.08. On to FTGSQPTAERITQLSAPHCKKLSL, for which, under “parent: IOH41048_39”, the protein stability index came to 2.08. Take ENKPSTCSFSIERILGLDQKKDCV: the protein stability index (parent: IOH40237_3) was 3.12. On to APKKELINIKGISEAKADKILAEA, for which the protein stability index (parent: IOH41191_10) was found to be 4.71. Consider KLAEAYLNLGPALSAALASSQKQH, for which the protein stability index (parent: IOH40091_29) came out at 2.78. As for QQVKCIITEEKVCMVCKKKIGNSA, the protein stability index (parent: IOH40537_139) came to 2.82.

In the case of WIHRPGCRCKNSNTVYCKLESCPS [SPRY1 WT], the protein stability index (parent: IOH39997_49) is 2.19.

In the case of FQMEKIEHGYENMNHFTVNLNREE, the protein stability index (parent: IOH40604_50) came out at 2.79. As to TGEFLKLPFERLAFVLSSNSLKHC, the protein stability index (parent: IOH40892_39) is 2.65. As for HSGEKPFICKECGKAYGWCSELIR, the protein stability index (parent: IOH40635_69) was 2.02. In the case of FSPNSPQFNVSGPGLLEEDNQWMT, under “parent: IOH40093_33”, the protein stability index came out at 2.95.

Regarding TPAKSLDKFIEDYLLPDTCFRMQI, the protein stability index (parent: IOH41283_2) came out at 2.79. For TIRLRPRQVLCEKCKSTLSPPEAS [PWWP2B WT], the protein stability index (parent: IOH40143_16) is 3.06. For LTLVFFVQITGQPNILFYASTVLK, the protein stability index (parent: IOH40813_48) was found to be 2.98. For the protein WEVQVSPTCPVCKDRASPADLRTN, the protein stability index (parent: IOH40792_9) came to 2.54. With YIGTHEYPHFSHRPSTLQAASTPQ, the protein stability index (parent: IOH41283_62) is 1.94. As to WCLVQICEKYLPGYYSEKLEAIQL [TBC1D10A WT], for the setting “parent: IOH41348_37”, the protein stability index amounted to 2.8. Regarding ITEEKVCMVCKKKIGNSAFARYPN, the protein stability index (parent: IOH40537_140) came out at 2.44. For GKAYGWCSELIRHRRVHARKEPSH, where the note is “parent: IOH40635_71”, the protein stability index worked out at 2.85. With FPKSEQVYLHFLSVVTEDGPEPKD, where the note is “parent: IOH40635_35”, the protein stability index is 2.15. On to TTLLKCYLHTNVALVAPLLRLENN, for which the protein stability index (parent: IOH40537_76) stood at 3.28.

As to ICPICLEMFTKPVVILPCQHNLCR, the protein stability index (parent: IOH40604_5) was determined as 2.21. On to YIKVDWQRVEKDMKKAKEQLKIRK [FUNDC2 WT], for which the protein stability index (parent: IOH40818_22) turned out to be 1.68. Take CLLGLGSLVLILSLSYTVLIVGRI: the protein stability index (parent: IOH40813_20) came to 3.34.

Take QKKDCVPLMKPHRPWADTCSSSGK: where the note is “parent: IOH40237_6”, the protein stability index was 3.2.

Regarding LYLQLAICSSLQNLEKTIFCLQKL, the protein stability index (parent: IOH40091_23) was determined as 2.99. Take PRYREDPCKQCKKKYVKGDVSLCR: the protein stability index (parent: IOH41760_105) was found to be 2.57. As for RTHTGEQPYTCSICRRNFSRRSSL [ZNF75A WT], the protein stability index (parent: IOH41486_45) was found to be 2.88. Consider GVSKVGLRKIIDFIYTAKLSLNMD, for which, for the setting “parent: IOH40892_24”, the protein stability index came to 2.67.

In the case of LQLGEGVEFDVLPAFDALGQLTGG, under “parent: IOH41283_24”, the protein stability index worked out at 1.9. For YLPTRGGTTMASGGRFRCPSCRHE, the protein stability index (parent: IOH40604_11) came out at 1.83. Turning to EQIAERKRKMVSWEASSLGLVTAA [MLL5 WT], the protein stability index (parent: IOH39874_95) came to 2.83.

With YCAKLCEPQWFYEETESSDDVEVL, for the setting “parent: IOH40091_6”, the protein stability index was determined as 2.25. For the protein FQASNPYLPTRGGTTMASGGRFRC, the protein stability index (parent: IOH40604_10) was 1.74.
